Measured values from patent US20260176378A1 (DYAX, published 2026).
Numbering of substitutions follows the chain as printed.

B1: M27-B12 (Fab, V domains shown)
VH: EVQLLESGGGLVQPGGSLRLSCAASGFTFSWYQMMWVRQAPGKGLEWVSSISPSGGITEYADSVKGRFTISRDNSKNTLYLQMNSLRAEDTAVYYCARDRSSGWYYYGMDVWGQGTTVTVSS
VL: QYELTQPPAVSVSPGQTATITCSGDKLGDEYAAWYQQKPGQSPVLVIYQDRKRPSGIPERFSGSNFGNTATLTITGTQVMDEADYYCQAWGKRNVVFGGGTKLTVL
B2: M12-D10 (Fab, V domains shown)
VH: EVQLLESGGGLVQPGGSLRLSCAASGFTFSNYPMDWVRQAPGKGLEWVSSISSSGGWTNYADSVKGRFTISRDNSKNTLYLQMNSLRAEDTAVYYCATDTSGSYLGFDYWGQGTLVTVSS
VL: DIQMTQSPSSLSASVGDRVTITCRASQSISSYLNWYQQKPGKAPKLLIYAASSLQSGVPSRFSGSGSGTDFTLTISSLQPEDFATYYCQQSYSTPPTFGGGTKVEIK
B3: M27-G09 (Fab, V domains shown)
VH: EVQLLESGGGLVQPGGSLRLSCAASGFTFSEYDMAWVRQAPGKGLEWVSYIVSSGGFTSYADSVKGRFTISRDNSKNTLYLQMNSLRAEDTAVYYCTTWAGWIAAADYWGQGTLVTVSS
VL: DIQMTQSPSSVSASVGDRITITCRTRQSISNYLNWYQQKPGEPPKLLIFAASSLQSGVPSRFSGSGTGTEFTLTISSLQPEDLAIYYCQQSYDIPFTFGQGTKLEIK
B4: M12-C09 (Fab, V domains shown)
VH: EVQLLESGGGLVQPGGSLRLSCAASGFTFSSYAMVWVRQAPGKGLEWVSSIGSSGGFTLYADSVKGRFTISRDNSKNTLYLQMNSLRAEDTAVYYCASMNLGGGDAFDIWGQGTMVTVSS
VL: DIQMTQSPSSLSASVGDRVTITCRASQSIGIYLNWYHQKPGKAPNLLIYGASSLQSGVPSRFSGSGSGTDFTLTISSLQPGDFATYYCQHSYSTPFTFGGGTKVEIK
B5: M27-H10 (Fab, V domains shown)
VH: EVQLLESGGGLVQPGGSLRLSCAASGFTFSAYQMAWVRQAPGKGLEWVSVIYSSGGYTDYADSVKGRFTISRDNSKNTLYLQMNSLRAEDTAVYYCARHNWNDGAFDIWGQGTMVTVSS
VL: DIQMTQSPSSLSASVGDRVTITCRASQSISNYLNWYQQKPGKAPKFLIYAASSLQSGVPSRFSGSGSGTDFTLSISSLQPEDFATYYCQQSYSTPQTFGQGTKVEMK
B6: M28-E01 (Fab, V domains shown)
VH: EVQLLESGGGLVQPGGSLRLSCAASGFTFSSYPMGWVRQAPGKGLEWVSRISSSGGMTIYADSVKGRFTISRDNSKNTLYLQMNSLRAEDTAVYYCARDDWNVGMDVWGQGTTVTVSS
VL: B5 VL with N31S, F46L, R61K, F71Y, S74T, S91T, S93T, Q96W, M106I
B7: M28-F01 (Fab, V domains shown)
VH: EVQLLESGGGLVQPGGSLRLSCAASGFTFSVYLMHWVRQAPGKGLEWVSGISPSGGYTQYADSVKGRFTISRDNSKNTLYLQMNSLRAEDTAVYYCARPGGLDAFDIWGQGTMVTVSS
VL: B5 VL with S30N, N31T, F46V, Y49H, S53T, Q55E, S74T, Q96P, M106I
B8: M27-B01 (Fab, V domains shown)
VH: EVQLLESGGGLVQPGGSLRLSCAASGFTFSDYTMWWVRQAPGKGLEWVSSISSSGGITFYADSVKGRFTISRDNSKNTLYLQMNSLRAEDTAVYYCARSADTAMGGAFDIWGQGTMVTVSS
VL: not shown
B9: M28-E11 (Fab, V domains shown)
VH: EVQLLESGGGLVQPGGSLRLSCAASGFTFSLYDMTWVRQAPGKGLEWVSGISSSGGVTIYADSVKGRFTISRDNSKNTLYLQMNSLRAEDTAVYYCARTYYYDSSGYADAFDIWGQGTMVTVSS
VL: DIQMTQSPSSVSASVGDRVTINCRASQDISNWLAWYQQKPGKAPNLLIYAASSLQTGAPSRFSGSGSGTDFTLTISSLQPEDFGTYVCQQSYSLPWTFGLGTKVEVR
B10: M12-E06 (Fab, V domains shown)
VH: EVQLLESGGGLVQPGGSLRLSCAASGFTFSQYKMLWVRQAPGKGLEWVSGIGPSGGLTAYADSVKGRFTISRDNSKNTLYLQMNSLRAEDTAVYYCARAPWFGELGMDVWGQGTTVTVSS
VL: DIQMTQSPSSLSASVGDRVSITCRASQSISTYLNWYQHKPGKAPTLLIYGAFSLQSGVPSRFSGSGSGTDFALTISSLQPEDFATYYCQQSHSTPPTFGQGTRVEIK
B11: M28-A01 (Fab, V domains shown)
VH: EVQLLESGGGLVQPGGSLRLSCAASGFTFSWYAMHWVRQAPGKGLEWVSGIYSSGGYTKYADSVKGRFTISRDNSKNTLYLQMNSLRAEDTAVYYCARDLSNGDDVFDIWGQGTMVTVSS
VL: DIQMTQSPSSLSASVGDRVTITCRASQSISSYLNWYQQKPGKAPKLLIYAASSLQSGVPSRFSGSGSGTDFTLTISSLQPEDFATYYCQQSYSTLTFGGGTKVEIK
B12: M12-A08 (Fab, V domains shown)
VH: EVQLLESGGGLVQPGGSLRLSCAASGFTFSWYYMGWVRQAPGKGLEWVSWIVSSGGLTLYADSVKGRFTISRDNSKNTLYLQMNSLRAEDTAMYYCARTTVTTGDAFDIWGQGTMVTVSS
VL: DIQMTQSPSSLSASVGDRVTITCRASQSISRYLNWYQQKPGKAPKLLIYAASTLETGVPSRFSGSGSGTDFTLTITTLQPEDFVIYYCQQSYSTPYTFGQGTKLEIK
B13: M27-G01 (Fab, V domains shown)
VH: EVQLLESGGGLVQPGGSLRLSCAASGFTFSLYRMFWVRQAPGKGLEWVSSIWSSGGPTMYADSVKGRFTISRDNSKNTLYLQMNSLRAEDTAVYYCAREYPSTYYFDYWGQGTLVTVSS
VL: B12 VL with R31T, A50G, T53S, E55Q, T56S, T76S, T77S, V84T, T94D, E105D
B14: M27-E03 (Fab, V domains shown)
VH: EVQLLESGGGLVQPGGSLRLSCAASGFTFSSYMMHWVRQAPGKGLEWVSGIYPSGGWTDYADSVKGRFTISRDNSKNTLYLQMNSLRAEDTATYYCARLVAGLDAFDIWGQGTMVTVSS
VL: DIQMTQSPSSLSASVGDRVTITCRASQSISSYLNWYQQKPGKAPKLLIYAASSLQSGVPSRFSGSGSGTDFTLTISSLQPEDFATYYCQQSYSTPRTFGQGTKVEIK
B15: M27-F11 (Fab, V domains shown)
VH: EVQLLESGGGLVQPGGSLRLSCAASGFTFSSYHMMWVRQAPGKGLEWVSSIYPSGGATMYADSVKGRFTISRDNSKNTLYLQMNSLRAEDTAMYYCARDGYHYGDYTYFQHWGQGTLVTVSS
VL: DIQMTQSPSFLSASVGDRVTITCRASQGISSYLAWYQQKPGKAPKLLIYAASSLQSGVPSRFSGSGSGTDFTLTISSLQPEDFATYYCQQSYNTLRTFGPGTKVDLK
B16: M11-G12 (Fab, V domains shown)
VH: EVQLLESGGGLVQPGGSLRLSCAASGFTFSQYPMNWVRQAPGKGLEWVSSISSSGGFTTYADSVKGRFTISRDNSKNTLYLQMNSLRAEDTAVYYCAREEQQGGFDYWGQGTLVTVSS
VL: DIQMTQSPSSLSAFVGDRVSITCRASQTISVYVNWYQHKSGQAPKLLIYGASSLQSGVPSRFSGSGSGTDFTLTISSLQPEDFATYFCQQSYSIPFTFGGGTDVQIR
B17: M12-B04 (Fab, V domains shown)
VH: EVQLLESGGGLVQPGGSLRLSCAASGFTFSLYSMYWVRQAPGKGLEWVSRIRPSGGGTVYADSVKGRFTISRDNSKNTLYLQMNSLRAEDTAVYYCARDPLYSSGDVWGQGTTVTVSS
VL: DIQMTQSPSSLSASVGDRVTITCRASQGIRNDLGWYQHKPGKAPKLLIYAASILQSGVPSRFSGTASGTDFTLTISSLQPEDFATYFCLQDYEYPLTFGGGTKLDIK
B18: M12-C10 (Fab, V domains shown)
VH: EVQLLESGGGLVQPGGSLRLSCAASGFTFSDYEMHWVRQAPGKGLEWVSGISPSGGKTQYADSVKGRFTISRDNSKNTLYLQMNSLRAEDTAVYYCARDLKWGGRGSPDWYFDLWGRGTLVTVSS
VL: QSALTQPPSVSVSPGQTASITCSGDKLGEKYVSWYQQKPGQSPVVVIYQDNKRPSGIPERFSGSNSGNTATLTISGTQAVDEADYYCQAWDSYTVVFGGGSKLTVLG
B19: M28-D12 (Fab, V domains shown)
VH: EVQLLESGGGLVQPGGSLRLSCAASGFTFSWYTMHWVRQAPGKGLEWVSVIYPSGGPTSYADSVKGRFTISRDNSKNTLYLQMNSLRAEDTATYYCARDGSGSYLGFDYWGQGTLVTVSS
VL: DIQMTQSPSSLSASVGDRVTITCRASQSIATYLNWYQQKPGRAPKLLIYAASSLQSGVPSRFVGGGSGSGTHFTLTISSLQPEDFATYYCQQSYSTRETFGQGTKVEIK
B20: M28-D02 (Fab, V domains shown)
VH: EVQLLESGGGLVQPGGSLRLSCAASGFTFSWYPMQWVRQAPGKGLEWVSYIYPSGGGTDYADSVKGRFTISRDNSKNTLYLQMNSLRAEDTATYYCATSSGWLGDAFDIWGQGTMVTVSS
VL: DIQMTQSPSSLSASEGDMVTITCRTSRRIGTYLNWYQQKPGKAPKLLIYGASSLQSGVPSRFSGSGSGTDFTLTVSSLQPEDVGTYYCQQSFSSPWTFGPGTKVEIK
B21: M27-A10 (Fab, V domains shown)
VH: EVQLLESGGGLVQPGGSLRLSCAASGFTFSWYRMDWVRQAPGKGLEWVSSIWPSGGLTSYADSVKGRFTISRDNSKNTLYLQMNSLRAEDTAVYYCARGWAPGGDAFDIWGQGTMVTVSS
VL: DIQMTQSPSSLSASVGDRVTITCRASQSISAYLNWYQQKPGKAPQLLMYGVGSLQSGVPSRFSGSGSGTDFTLTISSLQPEDFATYFCQQGYTTPVTFGGGTKVEIK
B22: M27-F04 (Fab, V domains shown)
VH: EVQLLESGGGLVQPGGSLRLSCAASGFTFSWYPMTWVRQAPGKGLEWVSSIGPSGGQTIYADSVKGRFTISRDNSKNTLYLQMNSLRAEDTAVYYCTTEYGDYGGGFDPWGQGTLVTVSS
VL: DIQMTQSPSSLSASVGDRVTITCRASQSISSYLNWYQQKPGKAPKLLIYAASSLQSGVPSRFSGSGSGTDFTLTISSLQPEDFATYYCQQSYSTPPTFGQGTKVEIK
B23: M27-G04 (Fab, V domains shown)
VH: EVQLLESGGGLVQPGGSLRLSCAASGFTFSAYYMVWVRQAPGKGLEWVSYISPSGGQTQYADSVKGRFTISRDNSKNTLYLQMNSLRAEDTAVYYCAREAISSSSFDYWGQGTLVTVSS
VL: DIQMTQSPSSLSASVGDRVTITCRASQRISYYLTWYQQKPGKVPKLLIYAASSLESGVPSRFSGSGSGTDFTLTISNLQPEDFATYYCQQAFSTPFTFGGGTKVEIK
B24: M28-C03 (Fab, V domains shown)
VH: EVQLLESGGGLVQPGGSLRLSCAASGFTFSYYQMGWVRQAPGKGLEWVSSIYPSGGMTDYADSVKGRFTISRDNSKNTLYLQMNSLRAEDTAVYYCTRGSPWGDDAFDIWGQGTMVTVSS
VL: DIQMTQSPSSLSASVGDRVTITCRASQSINFYLNWYQQKPGKAPKLLIYVASSLESGVPSRFSGSASGTEFTLTISSLQPEDFATYYCLQSYSAPYTFGQGTKVEIT

Each binder was assayed against T1, human plasma kallikrein (human, UniProt P03952 20-390; P03952 391-638) (assay: ELISA, biotinylated pKal signal over streptavidin background).
T1 construct: two disulfide-linked chains; NP_000883.2; also called pKal; hpKal
T1 sequence (P03952 20-390 limits assumed, chain 1 of 2): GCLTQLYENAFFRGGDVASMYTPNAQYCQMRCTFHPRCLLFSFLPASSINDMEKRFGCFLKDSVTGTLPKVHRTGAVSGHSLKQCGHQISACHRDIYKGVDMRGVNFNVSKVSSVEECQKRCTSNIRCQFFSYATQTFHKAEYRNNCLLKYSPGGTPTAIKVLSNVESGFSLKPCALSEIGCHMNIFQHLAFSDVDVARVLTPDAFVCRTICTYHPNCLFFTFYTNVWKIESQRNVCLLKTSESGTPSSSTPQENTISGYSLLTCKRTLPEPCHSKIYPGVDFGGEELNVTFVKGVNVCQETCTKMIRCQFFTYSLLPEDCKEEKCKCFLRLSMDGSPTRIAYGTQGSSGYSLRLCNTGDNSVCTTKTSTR
T1 sequence (P03952 391-638 limits assumed, chain 2 of 2): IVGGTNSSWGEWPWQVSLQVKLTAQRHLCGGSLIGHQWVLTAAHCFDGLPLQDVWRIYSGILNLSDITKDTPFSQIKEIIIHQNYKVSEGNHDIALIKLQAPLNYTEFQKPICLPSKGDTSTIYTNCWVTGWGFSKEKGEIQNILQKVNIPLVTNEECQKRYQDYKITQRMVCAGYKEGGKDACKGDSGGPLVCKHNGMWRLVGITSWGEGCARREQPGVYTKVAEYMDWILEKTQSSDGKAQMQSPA

Binder | ELISA (T/B)
B1 | 2.3
B2 | 9.9
B3 | 2.2
B4 | 7
B5 | 12.4
B6 | 41
B7 | 1.5
B8 | 33.1
B9 | 29.3
B10 | 48
B11 | 19
B12 | 40.4
B13 | 31.4
B14 | 35.9
B15 | 10
B16 | 4.9
B17 | 18
B18 | 8.3
B19 | 41.6
B20 | 3.7
B21 | 3.2
B22 | 10.5
B23 | 4.1
B24 | 2.2
